The record followed here is US20200289563A1 (WUXI BIOLOGICS IRELAND, published 2020).

Substitutions are numbered along the chain they refer to.

T1: human CD19 (human, UniProt P15391 20-556)
T1 sequence (looked up): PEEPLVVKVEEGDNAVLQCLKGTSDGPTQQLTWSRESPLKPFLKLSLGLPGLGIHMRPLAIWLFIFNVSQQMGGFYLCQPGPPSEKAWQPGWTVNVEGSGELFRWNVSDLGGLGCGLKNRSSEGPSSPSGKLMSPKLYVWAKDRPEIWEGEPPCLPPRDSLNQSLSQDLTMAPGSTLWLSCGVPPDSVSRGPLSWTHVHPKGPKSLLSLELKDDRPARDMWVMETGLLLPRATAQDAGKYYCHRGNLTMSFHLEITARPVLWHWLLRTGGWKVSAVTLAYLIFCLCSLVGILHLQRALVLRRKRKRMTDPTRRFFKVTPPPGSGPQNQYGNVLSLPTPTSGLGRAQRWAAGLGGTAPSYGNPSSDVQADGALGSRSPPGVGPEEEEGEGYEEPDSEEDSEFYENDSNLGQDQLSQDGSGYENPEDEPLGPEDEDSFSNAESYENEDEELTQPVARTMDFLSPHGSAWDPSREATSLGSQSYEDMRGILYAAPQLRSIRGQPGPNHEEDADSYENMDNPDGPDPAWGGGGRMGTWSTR

T2: cynomolgus monkey CD19 (cynomolgus monkey, UniProt A0A2K5W8L9 20-557)
T2 construct: whole, on cells; also called cyno CD19; cPro1
T2 sequence: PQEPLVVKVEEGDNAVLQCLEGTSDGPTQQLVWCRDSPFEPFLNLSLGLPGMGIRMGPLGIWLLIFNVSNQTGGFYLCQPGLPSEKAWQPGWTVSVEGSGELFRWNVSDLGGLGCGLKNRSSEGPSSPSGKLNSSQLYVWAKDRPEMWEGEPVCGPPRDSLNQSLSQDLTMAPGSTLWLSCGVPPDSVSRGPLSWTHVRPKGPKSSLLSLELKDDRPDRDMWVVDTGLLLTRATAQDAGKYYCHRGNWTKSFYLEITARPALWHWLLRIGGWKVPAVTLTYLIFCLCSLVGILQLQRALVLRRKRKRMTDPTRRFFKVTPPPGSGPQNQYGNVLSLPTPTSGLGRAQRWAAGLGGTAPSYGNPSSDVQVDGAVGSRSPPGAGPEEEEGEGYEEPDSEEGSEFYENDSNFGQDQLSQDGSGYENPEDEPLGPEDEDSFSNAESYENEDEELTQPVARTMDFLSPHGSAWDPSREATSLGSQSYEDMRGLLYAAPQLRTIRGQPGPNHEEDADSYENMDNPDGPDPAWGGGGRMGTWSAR

B1: WBP7011-4.100.1 (antibody, V domains shown)
VH: EVQLQQSGPELVKPGASVKMSCKASGYTFTSYVIHWVKQKPGQGLEWIGYINPYNDGAEYTEKFKGKATLTSDKSSSTAYMELSSLTSEDSTVYYCARGPYYYGGSPFDYWGQGTTLTVSS
VL: DAVMTQTPLSLPVSLGDQASISCRSSQSLENSNGNTYLNWYLQKPGQSPQLLIYRVSNRFSGVLDRFSGSGSGTDFTLKISRVEAEDLGVYFCLQVTHVPYTFGGGTKLEIK
notes: also called W7011-4.100.1
B2: WBP7011_4.191.6 (antibody, mouse IgG1, V domains shown)
VH: B1 VH with Q5L, S31D, K40R, A58S, T61S, T92A
VL: B1 VL
notes: Mouse monoclonal from hybridoma; isotype printed only for the sister subclone 4.191.3 (mouse IgG1, kappa); also called W7011-4.191.6
B3: WBP7011-4.106.3 (antibody, V domains shown)
VH: B1 VH with T30S, T61A, T78S, S84G, T92A
VL: B1 VL
notes: also called W7011-4.106.3
B4: WBP7011-4.15.10 (antibody, V domains shown)
VH: B1 VH with I34M, V37M, A58T, T61H, T92A, Y94F, Y110F
VL: B1 VL
notes: also called W7011-4.15.10
B5: WBP7011_4.194.10 (antibody, V domains shown)
VH: B1 VH with I34M, A58T, E59K, T61N, T92A, G105S
VL: B1 VL with S28T, A85T
notes: also called W7011-4.194.10
B6: WBP7011-4.34.11 (antibody, V domains shown)
VH: B1 VH with S31N, I51F, A58T, T61N, G66A, T92A, R98K, G105S
VL: B1 VL
B7: WBP7011_4.108.3 (antibody, V domains shown)
VH: B1 VH with K19E, V37L, T61N, E82D, S84N, T92A, G105S
VL: B1 VL
notes: also called W7011-4.108.3
B8: WBP7011_4.231.5 (antibody, V domains shown)
VH: B1 VH with I34M, A58T, E59Q, T61N, T92A, G104S, G105P
VL: B1 VL
notes: also called W7011-4.231.5
B9: WBP7011_4.56.1 (antibody, V domains shown)
VH: B1 VH with S31N, A58T, T61N, K74T, E82A, T92A, A97T
VL: B1 VL
notes: also called W7011-4.56.1
B10: WBP7011-4.87.6 (antibody, V domains shown)
VH: QVQLQQSGAELVRPGSSVKISCKASGYAFSTYWMNWVKQRPGQGLEWIGQIYPGDDDTKYNGKFKGKASLTADKSSSTAYMQLISLTSEDSAVYFCARRYFRYDYWYSDVWGAGTTVTVTS
VL: DIQMTQTTSSLSASLGDRVTISCRASQDISNYLNWYQQKPDGTVKLLIYYTSRLHSGVPARFSGSGSGTDYSLTISNLEQEDIATYFCHQGNTLPLTFGAGTKLELK
B11: WBP7011_4.155.8 (antibody, V domains shown)
VH: EIQLQQSGPELVKPGASVKVSCKASGYAFTSYNMYWVKQSHGKSLEWIGYIDPYNGDTTYNQKFKGKATLTVDKSSSTAYMHLNSLTSEDSAVYYCLTTAYAMDYWGQGTSVTVSS
VL: QIVLTQSPAIMSASLGEEITLTCSASSTVNYMHWYQQKSGTSPKLLIYSTSNLASGVPSRFSGSGSGTFYSLTIRSVEAEDAADYYCHQWSSYPYTFGGGTKLEIK
B12: WBP7011_4.225.7 (antibody, mouse IgG2a, V domains shown)
VH: B11 VH
VL: B11 VL
notes: also called W7011-4.225.7
B13: WBP7011_4.202.9 (antibody, mouse IgG2a, V domains shown)
VH: B11 VH
VL: B11 VL
notes: also called W7011-4.202.9
B14: WBP7011-4.34.11-z1-m5-IgG1k (antibody, V domains shown)
VH: QVQLVQSGAEVKKPGSSVKVSCKASGYTFTDYVIHWVRQAPGQGLEWMGYFNPYNDGTEYNEKFKARVTITADKSTSTAYMELSSLRSEDTAVYYCARGPYYYGSSPFDYWGQGTTVTVSS
VL: DIVMTQTPLSLPVTPGEPASISCRSSQSLENSNHNTYINWYLQKPGQSPQLLIYRVSKRFSGVPDRFSGSGSGTDFTLKISRVEAEDVGVYYCHQVTHVPYTFGQGTKLEIK
notes: human IgG1, kappa by its name
B15: WBP7011-4.87.6-z1-IgG1k (N-S) (antibody, V domains shown)
VH: QVQLVQSGAEVKKPGASVKVSCKASGYAFSTYWMNWVRQAPGQGLEWMGQIYPGDDDTKYSGKFKGRVTITADKSTSTAYMELSSLRSEDTAVYYCARRYFRYDYWYSDVWGQGTTVTVSS
VL: DIQMTQSPSSLSASVGDRVTITCRASQDISNYLNWYQQKPGKVPKLLIYYTSRLHSGVPSRFSGSGSGTDFTLTISSLQPEDVATYYCHQGNTLPLTFGQGTKLEIK
notes: human IgG1, kappa by its name

One assay addresses T1, human CD19. Nature of the assay: cell-based or functional assay.
Turning to B1, the “EC50 of cell viability, Fab-Zap assay on Ramos cells (internalization)” value (from here on “EC50 of cell viability, Fab-Zap assay”) worked out at 0.0148 nM.

B2: the “EC50 of cell viability, Fab-Zap assay” value was 0.0191 nM.

Regarding B3, the “EC50 of cell viability, Fab-Zap assay” value came to 0.0136 nM.

Take B4: the “EC50 of cell viability, Fab-Zap assay” value came to 0.0139 nM.

Regarding B5, the “EC50 of cell viability, Fab-Zap assay” value is 0.0117 nM.

In the case of B6, the “EC50 of cell viability, Fab-Zap assay” value came out at 0.007 nM.

As for B7, the “EC50 of cell viability, Fab-Zap assay” value was 0.0206 nM.

B8: the “EC50 of cell viability, Fab-Zap assay” value was determined as 0.0085 nM.

In the case of B9, the “EC50 of cell viability, Fab-Zap assay” value was determined as 0.0084 nM.

For B10, the “EC50 of cell viability, Fab-Zap assay” value amounted to 0.0085 nM.

On to B11, for which the “EC50 of cell viability, Fab-Zap assay” value was determined as 0.0276 nM.

As for B12, the “EC50 of cell viability, Fab-Zap assay” value amounted to 0.015 nM.

As for B13, the “EC50 of cell viability, Fab-Zap assay” value amounted to 0.0236 nM.

In a further assay the target is T1, human CD19. Nature of the assay: flow cytometry on Ramos cells. On the procedure:
The Ramos cells were plated in 96-well U-bottom plates (BD) at a density of 1×10⁵ cells/well. The purified antibody were serially diluted in the staining buffer (1×PBS/1% BSA) and incubated with cells for 1 hr at 4° C. The cells were then washed twice with staining buffer (BSA/1×PBS). […] The cells were then washed twice and re-suspended in 100 μL staining buffer. The fluorescence intensity was measured by flow cytometry (BD Canto II) and analyzed by FlowJo.
Binding activity of the selected subclones were tested on Ramos cell by flow cytometry (FIG. 4).
As for B1, the midpoint of the response, the EC50, lay at 0.17 nM.

As for B2, a half-maximal effect (EC50) was put at 0.07 nM.

For the molecule B3, the EC50 was 0.23 nM.

B4 came in with a concentration for a half-maximal effect (EC50) of 0.31 nM.

Turning to B5, a half-maximal response (EC50) required 0.15 nM.

On to B6, for which the EC50 was 0.23 nM.

B7 gave a half-maximal effective concentration (EC50) of 0.19 nM.

For the molecule B8, a half-maximal effect (EC50) was put at 0.12 nM.

Molecule B9 displayed an EC50 of 0.1 nM.

Consider B10, for which the EC50 came out at 0.1 nM.

On to B11, for which it took 0.85 nM to reach a half-maximal effect (EC50).

In turn, B12 had a half-maximal effective concentration (EC50) of 0.45 nM.

As for B13, the response was half-maximal at 0.64 nM (EC50).

Another assay addresses T1, human CD19. Nature of the assay: FACS on Ramos cells, Scatchard analysis. The protocol: KD was calculated using Scatchard Analysis.
The molecule B14 registered an equilibrium dissociation constant (Kd) of 0.23 nM.

B15: the affinity, expressed as Kd, was 0.25 nM.

The next assay has as its target T2, cynomolgus monkey CD19. Nature of the assay: flow cytometry on cynomolgus CD19 transfected CHO-K1 cells. On the procedure:
The cynomolgus CD19 transfected CHO-K1 cells were plated in 96-well U-bottom plates (BD) at a density of 1×10⁵ cells/well. The purified antibody were serially diluted in the staining buffer (1×PBS/1% BSA) and incubated with cells for 1 hr at 4° C. The cells were then washed twice with staining buffer (BSA/1×PBS). […] The cells were then washed twice and re-suspended in 100 μL staining buffer. The fluorescence intensity was measured by flow cytometry (BD Canto II) and analyzed by FlowJo.
The binding activity to cynomogus monkey CD19 of candidate antibodies was evaluated using cynomolgus monkey CD19 transfected CHO-K1 cell line (FIG. 5).
In turn, B1 returned an EC50 of 0.438 nM.

The molecule B3 returned a 50% effective concentration (EC50) of 0.496 nM.

The molecule B4 displayed an EC50 of 0.46 nM.

Regarding B5, the response was half-maximal at 0.996 nM (EC50).

As to B6, it took 0.443 nM to reach a half-maximal effect (EC50).

Regarding B7, a half-maximal response (EC50) required 0.863 nM.

The molecule B8 gave an EC50 of 0.628 nM.

For B9, the EC50 was found to be 0.438 nM.

Regarding B10, the 50% effective concentration (EC50) turned out to be 0.285 nM.

The molecule B11 had an EC50 of 1.54 nM.

As to B12, a half-maximal response (EC50) required 1.77 nM.

The molecule B13 registered an EC50 of 2.3 nM.

In the next assay the target is T1, human CD19. Nature of the assay: flow cytometry on CD19 transfected CHO-K1 cells, Scatchard analysis. On the procedure:
The CD19 transfected CHO-K1 cells or Ramos cells were plated in a 96-well plates (BD) at a density of 5×10⁴ cells/well. Antibodies to be tested were serially diluted in the staining buffer (1×PBS/1% BSA) and incubated with cells at 4° C. for 1 hr.
The affinity of selected candidate antibodies were tested on CD19 transfected CHO-K1 cell by flow cytometry.
In turn, B1 yielded a dissociation constant Kd of 0.213 nM.

Regarding B3, the dissociation constant (Kd) stood at 0.231 nM.

B4 registered a Kd of 0.17 nM.

B5: the Kd was 0.42 nM.

The molecule B6 came in with a Kd of 0.181 nM.

For B7, the Kd stood at 0.252 nM.

Molecule B8 displayed an equilibrium dissociation constant (Kd) of 0.17 nM.

Take B9: the dissociation constant Kd was 0.118 nM.

For the molecule B10, the Kd amounted to 0.0955 nM.

B11 showed a Kd of 0.949 nM.

As to B12, binding was characterised by a dissociation constant (Kd) of 0.735 nM.

With B13, the dissociation constant (Kd) was 0.847 nM.
